The text below walks through data of the supplement of paper PMC12042874.

± gives the uncertainty stated by the source.

The data set is described as follows: amyloid nucleation score (Sup35N fusion, yeast selection) (log enrichment); library NNK3; higher = more nucleation; inactive = no reads after selection. The essentials:
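Sup35N was fused to peptides of 20 random codons and expressed in psi-negative yeast, which were induced with 100 μM copper sulfate for 24 hours and then grown on medium lacking adenine and uracil for 7 days at 30°C. Plasmid inserts from input and output were sequenced on Illumina. The nucleation score is the DiMSum log enrichment of output over input reads, centred on the mode score of non-aggregating sequences. Sequences with under 100 input reads were left out, and random libraries had three technical output replicates.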
Regarding GVMYQACWSLASTYFTVNSS, the amyloid nucleation score entry is “inactive”.

FSRPLPTPESYRW: the amyloid nucleation score is -0.287 ± 1.3.

FLIPQGERSVLCMGCYFLYA: the amyloid nucleation score came to 1.85 ± 0.098.

Take ITCLNLINGGYHP: the amyloid nucleation score is -0.066 ± 0.3.

In the case of VAGLSRHIRIFHYYHSRARF, the amyloid nucleation score entry is “inactive”.

Consider HWAVRH, for which the amyloid nucleation score is 0.212 ± 0.42.

For the substance GWPVSLN, the amyloid nucleation score entry is “inactive”.

On to CRKTESAMRWK, for which the amyloid nucleation score entry was “inactive”.

For the substance ELIDKLVT, the amyloid nucleation score entry was “inactive”.

For AHRLHSLINSLTLSNRSMM, the amyloid nucleation score entry is “inactive”.

As to GIWCYAITLGFRPAGSTWDS, the amyloid nucleation score is 1.02 ± 0.15.

As for FTHAIPVYDEVPNHDICDGS, the amyloid nucleation score entry is “inactive”.

For FQIWCIFYLNMS, the amyloid nucleation score was determined as 2 ± 0.095.

The substance SKVRTVGRLEVSVRIVKTGL came in with an amyloid nucleation score of 0.085 ± 0.32.

With TLSCSDFTVLGTCDAVEGIN, the amyloid nucleation score result was “inactive”.

On to LCWKFAPRMLVYMMGY, for which the amyloid nucleation score result is “inactive”.

For SSGVTVDGSMCRI, the amyloid nucleation score result is “inactive”.

RMILTSQLLQKENGLSVTIN had an amyloid nucleation score of 0.853 ± 0.2.

Regarding LNSFFAAIHILMGHFKRILS, the amyloid nucleation score entry is “inactive”.

For the substance FYMISPTISFLLFGLLANI, the amyloid nucleation score result was “inactive”.

With AYCPKTALEVY, the amyloid nucleation score result is “inactive”.

Consider WDLLTKLHVKIKFLDRGMMS, for which the amyloid nucleation score entry was “inactive”.

For LVSLLVWPYLAWCQGCYSVE, the amyloid nucleation score entry is “inactive”.

On to IIVVCDSDRLFLPNQPPNVI, for which the amyloid nucleation score result is “inactive”.

As for SFRSSSYEDNCLLVVDNVRT, the amyloid nucleation score result is “inactive”.

TQFIELS came in with an amyloid nucleation score of 0.199 ± 0.32.

On to YWVRNVLNS, for which the amyloid nucleation score result is “inactive”.

NGGAHSLGK: the amyloid nucleation score entry was “inactive”.

SINRTKQCLEVNFHLDDCKA: the amyloid nucleation score entry is “inactive”.

With QDFRLLSALRF, the amyloid nucleation score result is “inactive”.

Substance DICRFNWMFHF registered an amyloid nucleation score of 1.3 ± 0.11.

With SMGLFDTQFVGELHVASRLF, the amyloid nucleation score entry was “inactive”.

As to PSGSVCGPHHIPHVDVSGIS, the amyloid nucleation score result was “inactive”.

Take SRYTLNAFYMWG: the amyloid nucleation score was determined as 2.02 ± 0.1.

On to VRDQLRVTLVRSENGIHAHY, for which the amyloid nucleation score result was “inactive”.

The substance TICLSRVTYVSRQEWGSASV yielded an amyloid nucleation score of -0.023 ± 1.

With IVDAIILWCSKILIWVGIGQ, the amyloid nucleation score entry was “inactive”.

Regarding FDLETSLL, the amyloid nucleation score entry is “inactive”.

On to VSNECVPWAPYGIGGF, for which the amyloid nucleation score entry was “inactive”.

On to TRHLMLVLSWFLHRKNISRG, for which the amyloid nucleation score entry is “inactive”.

Regarding QITRLPSNYVYETWSEKVFY, the amyloid nucleation score entry is “inactive”.

For the substance NFGHMY, the amyloid nucleation score result was “inactive”.

With KYLWDLATHNIFAGSKMMDN, the amyloid nucleation score result was “inactive”.

Take LMGTSIPSKQADLGTEFSNF: the amyloid nucleation score entry was “inactive”.

On to CLKFQSVY, for which the amyloid nucleation score result is “inactive”.

AFMVKYSSVLYVCNLALGRA: the amyloid nucleation score result is “inactive”.

As for GSWDI, the amyloid nucleation score entry is “inactive”.

Consider IFLLAVNSGINVTGCPLPKG, for which the amyloid nucleation score came to 2.28 ± 0.09.

On to LDRCNFISTILPQIRFSV, for which the amyloid nucleation score entry was “inactive”.

Turning to ILADSCGV, the amyloid nucleation score result was “inactive”.

AHGEMRAVKPINFKACWRCL: the amyloid nucleation score entry was “inactive”.

In the case of NLFFSVSMSAEFEW, the amyloid nucleation score was 0.078 ± 0.37.

For the substance FFFVDMYWSDCLKDLLL, the amyloid nucleation score result was “inactive”.

Take STSYYPDVRVATRSSYWHFT: the amyloid nucleation score turned out to be 1.14 ± 0.18.

For the substance CRMAKRLAVRTSLRRMFSES, the amyloid nucleation score result was “inactive”.

For INQGLTWMLDRPSKFAFVAV, the amyloid nucleation score result is “inactive”.

As for SHKNGFFSQETR, the amyloid nucleation score entry is “inactive”.

For the substance SREQIVCQVRSITLAYKNSV, the amyloid nucleation score result is “inactive”.

As to CFSVGKWSIFRN, the amyloid nucleation score entry was “inactive”.

Turning to MLAVRMVDTPSSCQRIKPDN, the amyloid nucleation score result is “inactive”.

The substance RMAEVFLLIDCNFFYFDRYM had an amyloid nucleation score of 2.02 ± 0.092.

Regarding EWFSMIVSHFNI, the amyloid nucleation score entry is “inactive”.

In turn, LRQSTSMPCNFCIYLEERKD gave an amyloid nucleation score of 1.43 ± 0.073.

For FEFYTMWSIWARVLFPLKIY, the amyloid nucleation score result was “inactive”.

In the case of IRGDGCTGARSPTTSRAAGN, the amyloid nucleation score entry is “inactive”.

Turning to HLGVGG, the amyloid nucleation score entry was “inactive”.

For the substance NSRLFAYKLKLVV, the amyloid nucleation score result is “inactive”.

As to TGWSWISLYWLCSNMVIVNR, the amyloid nucleation score result is “inactive”.

As for SLVWTDRNYVSTNGSSCVWL, the amyloid nucleation score entry was “inactive”.

In the case of ALYWTEYQ, the amyloid nucleation score entry was “inactive”.

In the case of DLDGVPTHSVVERMKTWLDT, the amyloid nucleation score result is “inactive”.

Substance SLGSCTMFSFSIFWISVQSV returned an amyloid nucleation score of 1.34 ± 0.084.

For WLMIMDFKCLSPRTRSWRRM, the amyloid nucleation score result was “inactive”.

As to AWISGHVRVKLSFRLTFFLK, the amyloid nucleation score entry was “inactive”.

Take VALVVHSLR: the amyloid nucleation score entry is “inactive”.

In the case of VSVYKNVAFFISWI, the amyloid nucleation score was 1.58 ± 0.09.

With CSCQMSRFMRTLVCVFT, the amyloid nucleation score entry was “inactive”.

For LVRKAAVPN, the amyloid nucleation score entry was “inactive”.

Turning to DEMPRVSMRVNNMPGCDNDE, the amyloid nucleation score result is “inactive”.

For IANLRAFILFMCDMKSTNPK, the amyloid nucleation score entry is “inactive”.

On to SIGELPT, for which the amyloid nucleation score entry was “inactive”.

As to SRITYEGQSRGCTLGNGLKR, the amyloid nucleation score entry is “inactive”.

In the case of SLCMVTLDKAIRLYYNPMYF, the amyloid nucleation score worked out at 2.18 ± 0.08.

On to LSMCSLHRNTVFWFRISLMI, for which the amyloid nucleation score entry was “inactive”.

FFVVC: the amyloid nucleation score result is “inactive”.

Consider YCSLMMMVYRDFFTLVNASV, for which the amyloid nucleation score result is “inactive”.

In the case of WQQAYRDRTSRSYWQPICAT, the amyloid nucleation score entry is “inactive”.

As to IMTSFPGEFPLSLHNMCASC, the amyloid nucleation score entry was “inactive”.

Consider PERTPFGSNYIYFVKRTRLL, for which the amyloid nucleation score entry is “inactive”.

Regarding LTICAFVVYVFIYKYKMGVM, the amyloid nucleation score entry was “inactive”.

VGLVMNCNKFYVLWFDQIGK yielded an amyloid nucleation score of 2.27 ± 0.068.

TVTGFTCNGCFHAVNSVVLT displayed an amyloid nucleation score of 0.002 ± 0.8.

Regarding ISKWESKSSSGLDFL, the amyloid nucleation score entry was “inactive”.

FILRLVEVSNFCTRYRNAYS: the amyloid nucleation score entry is “inactive”.

As for GSVSYISLSDNWVSGRKK, the amyloid nucleation score result was “inactive”.

On to YYGFYTNYFMCGV, for which the amyloid nucleation score was 2.77 ± 0.062.

With NDHLLL, the amyloid nucleation score result is “inactive”.

On to LYMDYLQNVNLYGMFI, for which the amyloid nucleation score result is “inactive”.
